Experimental data published in PMC11574045, “A cofactor-induced repressive type of transcription factor condensation can be induced by synthetic peptides to suppress tumorigenesis” (The EMBO Journal, 2024).

Tested on: HEK293FT cells transfected with TF library
Assay: Screening of TF condensates based on fluorescent puncta
Assay type: cell-based
Conditions: Figure 1B numerical data; TF library screen, one value per transcriptional factor
In short: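 Cells were seeded onto plasmid/PEI-loaded wells (plasmid 1.6 μg/ml final) and grown 60 h. Medium with or without glucose followed for 12 h. Fixed, permeabilized cells were stained against Flag or GAL4 tags, and condensate puncta were quantified from 50 random fields per well.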

B1: NR0B2/SHP (protein, UniProt Q15466 1-257, looked up)
Nuclear receptor subfamily 0 …: MSTSQPGACPCQGAASRPAILYALLSSSLKAVPRPRSRCLCRQHRPVQLCAPHRTCREALDVLAKTVAFLRNLPSFWQLPPQDQRRLLQGCWGPLFLLGLAQDAVTFEVAEAPVPSILKKILLEEPSSSGGSGQLPDRPQPSLAAVQWLQCCLESFWSLELSPKEYACLKGTILFNPDVPGLQAASHIGHLQQEAHWVLCEVLEPWCPAAQGRLTRVLLTASTLKSIPTSLLGDLFFRPIIGDVDIAGLLGDMLLLR
For B1, the “Z score of condensed fraction” value was -0.8477.

B2: NKX2-6 (protein, UniProt A6NCS4 1-301, looked up)
Homeobox protein Nkx-2.6: MLLSPVTSTPFSVKDILRLERERSCPAASPHPRVRKSPENFQYLRMDAEPRGSEVHNAGGGGGDRKLDGSEPPGGPCEAVLEMDAERMGEPQPGLNAASPLGGGTRVPERGVGNSGDSVRGGRSEQPKARQRRKPRVLFSQAQVLALERRFKQQRYLSAPEREHLASALQLTSTQVKIWFQNRRYKCKRQRQDKSLELAGHPLTPRRVAVPVLVRDGKPCLGPGPGAPAFPSPYSAAVSPYSCYGGYSGAPYGAGYGTCYAGAPSGPAPHTPLASAGFGHGGQNATPQGHLAATLQGVRAW
For B2, the “Z score of condensed fraction” value was -0.7176.

B3: NR1H2/LXRB (protein, UniProt P55055 1-460, looked up)
Oxysterols receptor LXR-beta: MSSPTTSSLDTPLPGNGPPQPGAPSSSPTVKEEGPEPWPGGPDPDVPGTDEASSACSTDWVIPDPEEEPERKRKKGPAPKMLGHELCRVCGDKASGFHYNVLSCEGCKGFFRRSVVRGGARRYACRGGGTCQMDAFMRRKCQQCRLRKCKEAGMREQCVLSEEQIRKKKIRKQQQESQSQSQSPVGPQGSSSSASGPGASPGGSEAGSQGSGEGEGVQLTAAQELMIQQLVAAQLQCNKRSFSDQPKVTPWPLGADPQSRDARQQRFAHFTELAIISVQEIVDFAKQVPGFLQLGREDQIALLKASTIEIMLLETARRYNHETECITFLKDFTYSKDDFHRAGLQVEFINPIFEFSRAMRRLGLDDAEYALLIAINIFSADRPNVQEPGRVEALQQPYVEALLSYTRIKRPQDQLRFPRMLMKLVSLRTLSSVHSEQVFALRLQDKKLPPLLSEIWDVHE
B3 was tested, and the “Z score of condensed fraction” value was 0.2806.

B4: NR0B1/DAX1 (protein, UniProt P51843 1-470, looked up)
Nuclear receptor subfamily 0 …: MAGENHQWQGSILYNMLMSAKQTRAAPEAPETRLVDQCWGCSCGDEPGVGREGLLGGRNVALLYRCCFCGKDHPRQGSILYSMLTSAKQTYAAPKAPEATLGPCWGCSCGSDPGVGRAGLPGGRPVALLYRCCFCGEDHPRQGSILYSLLTSSKQTHVAPAAPEARPGGAWWDRSYFAQRPGGKEALPGGRATALLYRCCFCGEDHPQQGSTLYCVPTSTNQAQAAPEERPRAPWWDTSSGALRPVALKSPQVVCEAASAGLLKTLRFVKYLPCFQVLPLDQQLVLVRNCWASLLMLELAQDRLQFETVEVSEPSMLQKILTTRRRETGGNEPLPVPTLQHHLAPPAEARKVPSASQVQAIKCFLSKCWSLNISTKEYAYLKGTVLFNPDVPGLQCVKYIQGLQWGTQQILSEHTRMTHQGPHDRFIELNSTLFLLRFINANVIAELFFRPIIGTVSMDDMMLEMLCTKI
For B4, the “Z score of condensed fraction” value was -0.574.

B5: NKX6-3 (protein, UniProt A6NJ46 1-265, looked up)
Homeobox protein Nkx-6.3: MESNLQGTFLLNNTPLAQFPEMKAPVCQYSVQNSFYKLSPPGLGPQLAAGTPHGITDILSRPVAAPNNSLLSGYPHVAGFGGLSSQGVYYSPQVGNFSKAGNEYPTRTRNCWADTGQDWRGGRQCSNTPDPLSDSIHKKKHTRPTFTGHQIFALEKTFEQTKYLAGPERARLAYSLGMTESQVKVWFQNRRTKWRKKSALEPSSSTPRAPGGAGAGAGGDRAPSENEDDEYNKPLDPDSDDEKIRLLLRKHRAAFSVLSLGAHSV
For B5, the “Z score of condensed fraction” value was -0.571.

B6: NFYB (protein, UniProt P25208 1-207, looked up)
Nuclear transcription factor …: MTMDGDSSTTDASQLGISADYIGGSHYVIQPHDDTEDSMNDHEDTNGSKESFREQDIYLPIANVARIMKNAIPQTGKIAKDAKECVQECVSEFISFITSEASERCHQEKRKTINGEDILFAMSTLGFDSYVEPLKLYLQKFREAMKGEKGIGGAVTATDGLSEELTEEAFTNQLPAGLITTDGQQQNVMVYTTSYQQISGVQQIQFS
B6 was tested, and the “Z score of condensed fraction” value was 0.9401.

B7: NF-YB (protein, UniProt P25208 1-207, looked up)
Nuclear transcription factor …: B6 Nuclear transcription factor …
In the case of B7, the “Z score of condensed fraction” value is reported as 0.001922.

B8: NR1F3/RORC (protein, UniProt P51449 1-518, looked up)
Nuclear receptor ROR-gamma: MDRAPQRQHRASRELLAAKKTHTSQIEVIPCKICGDKSSGIHYGVITCEGCKGFFRRSQRCNAAYSCTRQQNCPIDRTSRNRCQHCRLQKCLALGMSRDAVKFGRMSKKQRDSLHAEVQKQLQQRQQQQQEPVVKTPPAGAQGADTLTYTLGLPDGQLPLGSSPDLPEASACPPGLLKASGSGPSYSNNLAKAGLNGASCHLEYSPERGKAEGRESFYSTGSQLTPDRCGLRFEEHRHPGLGELGQGPDSYGSPSFRSTPEAPYASLTEIEHLVQSVCKSYRETCQLRLEDLLRQRSNIFSREEVTGYQRKSMWEMWERCAHHLTEAIQYVVEFAKRLSGFMELCQNDQIVLLKAGAMEVVLVRMCRAYNADNRTVFFEGKYGGMELFRALGCSELISSIFDFSHSLSALHFSEDEIALYTALVLINAHRPGLQEKRKVEQLQYNLELAFHHHLCKTHRQSILAKLPPKGKLRSLCSQHVERLQIFQHLHPIVVQAAFPPLYKELFSTETESPVGLSK
For B8, the “Z score of condensed fraction” value was 0.1658.

B9: NFX1 (protein, UniProt Q12986 1-1120, looked up)
Transcriptional repressor …: MAEAPPVSGTFKFNTDAAEFIPQEKKNSGLNCGTQRRLDSNRIGRRNYSSPPPCHLSRQVPYDEISAVHQHSYHPSGSKPKSQQTSFQSSPCNKSPKSHGLQNQPWQKLRNEKHHIRVKKAQSLAEQTSDTAGLESSTRSESGTDLREHSPSESEKEVVGADPRGAKPKKATQFVYSYGRGPKVKGKLKCEWSNRTTPKPEDAGPESTKPVGVFHPDSSEASSRKGVLDGYGARRNEQRRYPQKRPPWEVEGARPRPGRNPPKQEGHRHTNAGHRNNMGPIPKDDLNERPAKSTCDSENLAVINKSSRRVDQEKCTVRRQDPQVVSPFSRGKQNHVLKNVETHTGSLIEQLTTEKYECMVCCELVRVTAPVWSCQSCYHVFHLNCIKKWARSPASQADGQSGWRCPACQNVSAHVPNTYTCFCGKVKNPEWSRNEIPHSCGEVCRKKQPGQDCPHSCNLLCHPGPCPPCPAFMTKTCECGRTRHTVRCGQAVSVHCSNPCENILNCGQHQCAELCHGGQCQPCQIILNQVCYCGSTSRDVLCGTDVGKSDGFGDFSCLKICGKDLKCGNHTCSQVCHPQPCQQCPRLPQLVRCCPCGQTPLSQLLELGSSSRKTCMDPVPSCGKVCGKPLPCGSLDFIHTCEKLCHEGDCGPCSRTSVISCRCSFRTKELPCTSLKSEDATFMCDKRCNKKRLCGRHKCNEICCVDKEHKCPLICGRKLRCGLHRCEEPCHRGNCQTCWQASFDELTCHCGASVIYPPVPCGTRPPECTQTCARVHECDHPVYHSCHSEEKCPPCTFLTQKWCMGKHEFRSNIPCHLVDISCGLPCSATLPCGMHKCQRLCHKGECLVDEPCKQPCTTPRADCGHPCMAPCHTSSPCPVTACKAKVELQCECGRRKEMVICSEASSTYQRIAAISMASKITDMQLGGSVEISKLITKKEVHQARLECDEECSALERKKRLAEAFHISEDSDPFNIRSSGSKFSDSLKEDARKDLKFVSDVEKEMETLVEAVNKGKNSKKSHSFPPMNRDHRRIIHDLAQVYGLESVSYDSEPKRNVVVTAIRGKSVCPPTTLTGVLEREMQARPPPPIPHHRHQSDKNPGSSNLQKITKEPIIDYFDVQD
In the case of B9, the “Z score of condensed fraction” value is reported as -0.8733.

B10: NKX2-8 (protein, UniProt O15522 1-239, looked up)
Homeobox protein Nkx-2.8: MATSGRLSFTVRSLLDLPEQDAQHLPRREPEPRAPQPDPCAAWLDSERGHYPSSDESSLETSPPDSSQRPSARPASPGSDAEKRKKRRVLFSKAQTLELERRFRQQRYLSAPEREQLASLLRLTPTQVKIWFQNHRYKLKRARAPGAAESPDLAASAELHAAPGLLRRVVVPVLVRDGQPCGGGGGGEVGTAAAQEKCGAPPAAACPLPGYPAFGPGSALGLFPAYQHLASPALVSWNW
B10 was tested, and the “Z score of condensed fraction” value was -0.6353.

B11: NKX6-2 (protein, UniProt Q9C056 1-277, looked up)
Homeobox protein Nkx-6.2: MDTNRPGAFVLSSAPLAALHNMAEMKTSLFPYALQGPAGFKAPALGGLGAQLPLGTPHGISDILGRPVGAAGGGLLGGLPRLNGLASSAGVYFGPAAAVARGYPKPLAELPGRPPIFWPGVVQGAPWRDPRLAGPAPAGGVLDKDGKKKHSRPTFSGQQIFALEKTFEQTKYLAGPERARLAYSLGMTESQVKVWFQNRRTKWRKRHAVEMASAKKKQDSDAEKLKVGGSDAEDDDEYNRPLDPNSDDEKITRLLKKHKPSNLALVSPCGGGAGDAL
For B11, the “Z score of condensed fraction” value was -0.6325.

B12: NKX2.5 (protein, UniProt P52952 1-324, looked up)
Homeobox protein Nkx-2.5: MFPSPALTPTPFSVKDILNLEQQQRSLAAAGELSARLEATLAPSSCMLAAFKPEAYAGPEAAAPGLPELRAELGRAPSPAKCASAFPAAPAFYPRAYSDPDPAKDPRAEKKELCALQKAVELEKTEADNAERPRARRRRKPRVLFSQAQVYELERRFKQQRYLSAPERDQLASVLKLTSTQVKIWFQNRRYKCKRQRQDQTLELVGLPPPPPPPARRIAVPVLVRDGKPCLGDSAPYAPAYGVGLNPYGYNAYPAYPGYGGAACSPGYSCTAAYPAGPSPAQPATAAANNNFVNFGVGDLNAVQSPGIPQSNSGVSTLHGIRAW
In the case of B12, the “Z score of condensed fraction” value is reported as -0.3246.

B13: NPM2 (protein, UniProt Q86SE8 1-214, looked up)
Nucleoplasmin-2: MNLSSASSTEEKAVTTVLWGCELSQERRTWTFRPQLEGKQSCRLLLHTICLGEKAKEEMHRVEILPPANQEDKKMQPVTIASLQASVLPMVSMVGVQLSPPVTFQLRAGSGPVFLSGQERYEASDLTWEEEEEEEGEEEEEEEEDDEDEDADISLEEQSPVKQVKRLVPQKQASVAKKKKLEKEEEEIRASVRDKSPVKKAKATARAKKPGFKK
With B13 the “Z score of condensed fraction” value was 1.0628.

B14: NKX2-2 (protein, UniProt O95096 1-273, looked up)
Homeobox protein Nkx-2.2: MSLTNTKTGFSVKDILDLPDTNDEEGSVAEGPEEENEGPEPAKRAGPLGQGALDAVQSLPLKNPFYDSSDNPYTRWLASTEGLQYSLHGLAAGAPPQDSSSKSPEPSADESPDNDKETPGGGGDAGKKRKRRVLFSKAQTYELERRFRQQRYLSAPEREHLASLIRLTPTQVKIWFQNHRYKMKRARAEKGMEVTPLPSPRRVAVPVLVRDGKPCHALKAQDLAAATFQAGIPFSAYSAQSLQHMQYNAQYSSASTPQYPTAHPLVQAQQWTW
With B14 the “Z score of condensed fraction” value was -0.1567.

B15: ATF3 (protein, UniProt P18847 1-181, looked up)
Cyclic AMP-dependent …: MMLQHPGQVSASEVSASAIVPCLSPPGSLVFEDFANLTPFVKEELRFAIQNKHLCHRMSSALESVTVSDRPLGVSITKAEVAPEEDERKKRRRERNKIAAAKCRNKKKEKTECLQKESEKLESVNAELKAQIEELKNEKQHLIYMLNLHRPTCIVRAQNGRTPEDERNLFIQQIKEGTLQS
For B15, the “Z score of condensed fraction” value was -0.2156.
